In US20110091994A1, “Methods for Screening Compounds for Treating and/or Preventing an Hepatitis C Virus Infection” (priority 2008, published 2011):
Where two headings read alike, the source gives them in different places.

Tests used:
[1] = biological target: T1, HCV ORFs (Gal4-DB fusions) (Hepatitis C virus genotype 1b, UniProt Q9WMX2); format: binding, HCV genotype 1b, isolate con1; settings: human protein as prey
T1 construct: expressed in transfected cells; host or cells: Saccharomyces cerevisiae MAV203 (IMAP1) / AH109 (IMAP2)
Protocol: (§1) HCV ORFs were transferred from pDONR223 into bait vector (pPC97) to be expressed as Gal4-DB fusions in yeast. Two different screening methods were used (IMAP1 and IMAP2). Both for IMAP1 and IMAP2 strategies and because bait constructs sometimes self-transactivate reporter genes, SD-L-H culture medium were supplemented with 3-aminotriazole (3-AT). Appropriate concentrations of this drug were determined by growing bait strains on SD-L-H medium supplemented with increasing concentrations of 3-AT. […] For IMAP1, bait vectors were introduced in MAV203 yeast strain and both human spleen and foetal brain AD-cDNA libraries (Invitrogen) were screened by transformation as described (7). All primary positive clones (selected on SD-W-L-H+3-AT) were tested by further phenotypic assay using two additional reporter genes: LacZ (X-Gal colorimetric assay) and URA3 (growth assay on 5-FOA supplemented medium). […] AD-cDNA were PCR-amplified and inserts were sequenced to identify interactors. IMAP2 screens were performed by yeast mating, using AH109 and Y187 yeast strains (Clontech (8)). Bait vectors were transformed into AH109 (bait strain) and human spleen and foetal brain AD-cDNA libraries (Invitrogen) were transformed into Y187 (prey strain). Single bait strains were mated with prey strains then diploids were plated on SD-W-L-H+3-AT medium. Positive clones were maintained onto this selective medium for 15 days to eliminate any contaminant AD-cDNA plasmid (9). AD-cDNAs were PCR amplified and inserts were sequenced.
(§2) We have developed a bioinformatic pipeline that assigns each IST to its native human genome transcript. […] Gal4 motif was searched (last 87 bases of GAL4-AD), sequences downstream of this motif were translated into peptides and aligned using BLASTP against the REFSEQ (http://www.ncbi.nlm.nih.gov/RefSeq/) human protein sequence database (release 04/2007). Low-confidence alignments (E value>10^−10, identity <80%) and premature STOP codon containing sequences were eliminated. Only in-frame proteins and high quality sequences were further considered

[2] = tested on: HCV ORFs (Gal4-DB fusions); format: binding, HCV genotype 1b, isolate con1; settings: human protein listed by gene symbol; the value names the HCV protein it interacts with
Protocol: as §1, §2

HCV proteins = biological target: T2, HCV proteins (Hepatitis C virus genotype 1b, UniProt Q9WMX2); test: Validation by Y2H pairwise matrices; format: binding;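 note: yeast two-hybrid pairwise tests of interactions first found in Y2H screens of HCV bait proteins against human cDNA libraries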
T2 construct: expressed in transfected cells

[3] = validation of interaction with HCV protein NS3
[4] = validation of interaction with HCV protein CORE
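Throughout, for IMAP Y2H IMAP1 (number of IST): yeast two-hybrid screens using HCV genotype 1b proteins fused to Gal4-DB as baits against prey cDNA libraries from human spleen and foetal brain, IMAP1 via transformation and IMAP2 via mating.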
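Throughout, for IMAP Y2H IMAP2 (number of IST): yeast two-hybrid screens using HCV genotype 1b proteins fused to Gal4-DB as baits against prey cDNA libraries from human spleen and foetal brain, IMAP1 via transformation and IMAP2 via mating.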
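Throughout, for Interaction with viral protein: yeast two-hybrid screens using HCV genotype 1b proteins fused to Gal4-DB as baits against prey cDNA libraries from human spleen and foetal brain, IMAP1 via transformation and IMAP2 via mating.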

Molecule	IMAP Y2H IMAP1 (number of IST) ([1]; HCV protein NS3 as bait)	Interaction with viral protein [2]	Y2H matrices (HCV proteins; [3])	IMAP Y2H IMAP1 (number of IST) ([1]; HCV protein CORE as bait)	Y2H matrices (HCV proteins; [4])	IMAP Y2H IMAP2 (number of IST) ([1]; HCV protein CORE as bait)	IMAP Y2H IMAP2 (number of IST) ([1]; HCV protein NS3 as bait)	IMAP Y2H IMAP1 (number of IST) ([1]; HCV protein NS5A as bait)	IMAP Y2H IMAP2 (number of IST) ([1]; HCV protein NS5A as bait)	Y2H matrices (HCV proteins; interaction with HCV protein NS5A)
NEFL (protein, UniProt P07196 2-543, looked up) Neurofilament light …: SSFSYEPYYSTSYKRRYVETPRVHISSVRSGYSTARSAYSSYSAPVSSSLSVRRSYSSSSGSLMPSLENLDLSQVAAISNDLKSIRTQEKAQLQDLNDRFASFIERVHELEQQNKVLEAELLVLRQKHSEPSRFRALYEQEIRDLRLAAEDATNEKQALQGEREGLEETLRNLQARYEEEVLSREDAEGRLMEARKGADEAALARAELEKRIDSLMDEISFLKKVHEEEIAELQAQIQYAQISVEMDVTKPDLSAALKDIRAQYEKLAAKNMQNAEEWFKSRFTVLTESAAKNTDAVRAAKDEVSESRRLLKAKTLEIEACRGMNEALEKQLQELEDKQNADISAMQDTINKLENELRTTKSEMARYLKEYQDLLNVKMALDIEIAAYRKLLEGEETRLSFTSVGSITSGYSQSSQVFGRSAYGGLQTSSYLMSTRSFPSYYTSHVQEEQIEVEETIEAAKAEEAKDEPPSEGEAEEEEKDKEEAEEEEAAEEEEAAKEESEEAKEEEEGGEGEEGEETKEAEEEEKKVEGAGEEQAAKKKD	1	NS3	+							
LZTS2 (protein, UniProt Q9BRK4 1-669, looked up) Leucine zipper putative tumor …: MAIVQTLPVPLEPAPEAATAPQAPVMGSVSSLISGRPCPGGPAPPRHHGPPGPTFFRQQDGLLRGGYEAQEPLCPAVPPRKAVPVTSFTYINEDFRTESPPSPSSDVEDAREQRAHNAHLRGPPPKLIPVSGKLEKNMEKILIRPTAFKPVLPKPRGAPSLPSFMGPRATGLSGSQGSLTQLFGGPASSSSSSSSSSAADKPLAFSGWASGCPSGTLSDSGRNSLSSLPTYSTGGAEPTTSSPGGHLPSHGSGRGALPGPARGVPTGPSHSDSGRSSSSKSTGSLGGRVAGGLLGSGTRASPDSSSCGERSPPPPPPPPSDEALLHCVLEGKLRDREAELQQLRDSLDENEATMCQAYEERQRHWQREREALREDCAAQAQRAQRAQQLLQLQVFQLQQEKRQLQDDFAQLLQEREQLERRCATLEREQRELGPRLEETKWEVCQKSGEISLLKQQLKESQAELVQKGSELVALRVALREARATLRVSEGRARGLQEAARARELELEACSQELQRHRQEAEQLREKAGQLDAEAAGLREPPVPPATADPFLLAESDEAKVQRAAAGVGGSLRAQVERLRVELQRERRRGEEQRDSFEGERLAWQAEKEQVIRYQKQLQHNYIQMYRRNRQLEQELQQLSLELEARELADLGLAEQAPCICLEEITATEI	8	NS3	+							
LRRTM1 (protein, UniProt Q86UE6 35-522, looked up) Leucine-rich repeat …: APSGCPQLCRCEGRLLYCEALNLTEAPHNLSGLLGLSLRYNSLSELRAGQFTGLMQLTWLYLDHNHICSVQGDAFQKLRRVKELTLSSNQITQLPNTTFRPMPNLRSVDLSYNKLQALAPDLFHGLRKLTTLHMRANAIQFVPVRIFQDCRSLKFLDIGYNQLKSLARNSFAGLFKLTELHLEHNDLVKVNFAHFPRLISLHSLCLRRNKVAIVVSSLDWVWNLEKMDLSGNEIEYMEPHVFETVPHLQSLQLDSNRLTYIEPRILNSWKSLTSITLAGNLWDCGRNVCALASWLNNFQGRYDGNLQCASPEYAQGEDVLDAVYAFHLCEDGAEPTSGHLLSAVTNRSDLGPPASSATTLADGGEGQHDGTFEPATVALPGGEHAENAVQIHKVVTGTMALIFSFLIVVLVLYVSWKCFPASLRQLRQCFVTQRRKQKQKQTMHQMAAMSAQEYYVDYKPNHIEGALVIINEYGSCTCHQQPARECEV		CORE		1	+					
MAGED1 (protein, UniProt Q9Y5V3 1-778, looked up) Melanoma-associated antigen D1: MAQKMDCGAGLLGFQAEASVEDSALLMQTLMEAIQISEAPPTNQATAAASPQSSQPPTANEMADIQVSAAAARPKSAFKVQNATTKGPNGVYDFSQAHNAKDVPNTQPKAAFKSQNATPKGPNAAYDFSQAATTGELAANKSEMAFKAQNATTKVGPNATYNFSQSLNANDLANSRPKTPFKAWNDTTKAPTADTQTQNVNQAKMATSQADIETDPGISEPDGATAQTSADGSQAQNLESRTIIRGKRTRKINNLNVEENSSGDQRRAPLAAGTWRSAPVPVTTQNPPGAPPNVLWQTPLAWQNPSGWQNQTARQTPPARQSPPARQTPPAWQNPVAWQNPVIWPNPVIWQNPVIWPNPIVWPGPVVWPNPLAWQNPPGWQTPPGWQTPPGWQGPPDWQGPPDWPLPPDWPLPPDWPLPTDWPLPPDWIPADWPIPPDWQNLRPSPNLRPSPNSRASQNPGAAQPRDVALLQERANKLVKYLMLKDYTKVPIKRSEMLRDIIREYTDVYPEIIERACFVLEKKFGIQLKEIDKEEHLYILISTPESLAGILGTTKDTPKLGLLLVILGVIFMNGNRASEAVLWEALRKMGLRPGVRHPLLGDLRKLLTYEFVKQKYLDYRRVPNSNPPEYEFLWGLRSYHETSKMKVLRFIAEVQKRDPRDWTAQFMEAADEALDALDAAAAEAEARAEARTRMGIGDEAVSGPWSWDDIEFELLTWDEEGDFGDPWSRIPFTFWARYHQNARSRFPQTFAGPIIGPGGTASANFAANFGAIGFFWVE	1	NS3 and CORE	+	1	+	2				
MLXIP (protein, UniProt Q9HAP2 2-919, looked up) MLX-interacting protein: AADVFMCSPRRPRSRGRQVLLKPQVSEDDDDSDTDEPSPPPASGAATPARAHASAAPPPPRAGPGREEPPRRQQIIHSGHFMVSSPHREHPPKKGYDFDTVNKQTCQTYSFGKTSSCHLSIDASLTKLFECMTLAYSGKLVSPKWKNFKGLKLQWRDKIRLNNAIWRAWYMQYLEKRKNPVCHFVTPLDGSVDVDEHRRPEAITTEGKYWKSRIEIVIREYHKWRTYFKKRLQQHKDEDLSSLVQDDDMLYWHKHGDGWKTPVPMEEDPLLDTDMLMSEFSDTLFSTLSSHQPVAWPNPREIAHLGNADMIQPGLIPLQPNLDFMDTFEPFQDLFSSSRSIFGSMLPASASAPVPDPNNPPAQESILPTTALPTVSLPDSLIAPPTAPSLAHMDEQGCEHTSRTEDPFIQPTDFGPSEPPLSVPQPFLPVFTMPLLSPSPAPPPISPVLPLVPPPATALNPPAPPTFHQPQKFAGVNKAPSVITHTASATLTHDAPATTFSQSQGLVITTHHPAPSAAPCGLALSPVTRPPQPRLTFVHPKPVSLTGGRPKQPHKIVPAPKPEPVSLVLKNARIAPAAFSGQPQAVIMTSGPLKREGMLASTVSQSNVVIAPAAIARAPGVPEFHSSILVTDLGHGTSSPPAPVSRLFPSTAQDPLGKGEQVPLHGGSPQVTVTGPSRDCPNSGQASPCASEQSPSPQSPQNNCSGKSDPKNVAALKNRQMKHISAEQKRRFNIKMCFDMLNSLISNNSKLTSHAITLQKTVEYITKLQQERGQMQEEARRLREEIEELNATIISCQQLLPATGVPVTRRQFDHMKDMFDEYVKTRTLQNWKFWIFSIIIKPLFESFKGMVSTSSLEELHRTALSWLDQHCSLPILRPMVLSTLRQLSTSTSILTDPAQLPEQASKAVTRIGKRLGES	1	NS3	+							
MORC4 (protein, UniProt Q8TE76 1-937, looked up) MORC family CW-type zinc …: MLLYRGAPAGPGAPGCGLARPGGGPQAFGIRLSTMSPRYLQSNSSSHTRPFSAIAELLDNAVDPDVSARTVFIDVEEVKNKSCLTFTDDGCGMTPHKLHRMLSFGFTDKVIKKSQCPIGVFGNGFKSGSMRLGKDALVFTKNGGTLTVGLLSQTYLECVQAQAVIVPIVPFNQQNKKMIITEDSLPSLEAILNYSIFNRENDLLAQFDAIPGKKGTRVLIWNIRRNKNGKSELDFDTDQYDILVSDFDTEEKMTGGVTSELPETEYSLRAFCGILYMKPRMKIFLRQKKVTTQMIAKSLANVEYDTYKPTFTNKQVRITFGFSCKNSNQFGIMMYHNNRLIKSFEKVGCQVKPTRGEGVGVIGVIECNFLKPAYNKQDFEYTKEYRLTINALAQKLNAYWKEKTSQDNFETSTVARPIPKVPDQTWVQCDECLKWRKLPGKIDPSMLPARWFCYYNSHPKYRRCSVPEEQELTDEDLCLSKAKKQEQTVEEKKKMPMENENHQVFSNPPKILTVQEMAGLNNKTIGYEGIHSPSVLPSGGEESRSPSLQLKPLDSSVLQFSSKYKWILGEEPVEKRRRLQNEMTTPSLDYSMPAPYRRVEAPVAYPEGENSHDKSSSERSTPPYLFPEYPEASKNTGQNREVSILYPGAKDQRQGSLLPEELEDQMPRLVAEESNRGSTTINKEEVNKGPFVAVVGVAKGVRDSGAPIQLIPFNREELAERRKAVESWNPVPYSVASAAIPAAAIGEKARGYEESEGHNTPKLKNQRELEELKRTTEKLERVLAERNLFQQKVEELEQERNHWQSEFKKVQHELVIYSTQEAEGLYWSKKHMGYRQAEFQILKAELERTKEEKQELKEKLKETETHLEMLQKAQVSYRTPEGDDLERALAKLTRLRIHVSYLLTSVLPHLELREIGYDSEQVDGILYTVLEANHILD	1	NS3	+							
NAP1L1 (protein, UniProt P55209 2-388, looked up) Nucleosome assembly protein …: ADIDNKEQSELDQDLDDVEEVEEEETGEETKLKARQLTVQMMQNPQILAALQERLDGLVETPTGYIESLPRVVKRRVNALKNLQVKCAQIEAKFYEEVHDLERKYAVLYQPLFDKRFEIINAIYEPTEEECEWKPDEEDEISEELKEKAKIEDEKKDEEKEDPKGIPEFWLTVFKNVDLLSDMVQEHDEPILKHLKDIKVKFSDAGQPMSFVLEFHFEPNEYFTNEVLTKTYRMRSEPDDSDPFSFDGPEIMGCTGCQIDWKKGKNVTLKTIKKKQKHKGRGTVRTVTKTVSNDSFFNFFAPPEVPESGDLDDDAEAILAADFEIGHFLRERIIPRSVLYFTGEAIEDDDDDYDEEGEEADEEGEEEGDEENDPDYDPKKDQNPAEC		NS3 and NS5A					1	1	31	+
